Consider 2 proteins from publication PMC9744887, “Structural mechanism of signal transduction in a phytochrome histidine kinase” (Nature Communications, 2022).

The data set deals with the molecule itself. Briefly: cryo-EM structure; single-particle cryo-EM of DrBphP-DrRR in the Pr state: 780 nm far-red light on the grid; 1-1.5 mg/ml protein with 10 mM CaCl2, 10 mM MgCl2, 4 mM AMP-PNP; Vitrobot at 4 °C; no symmetry imposed.

B1: Phytochrome from Deinococcus radiodurans (DrBphP), as the phytochrome part of the DrBphP-DrRR fusion (enzyme)
chain: MSRDPLPFFPPLYLGGPEITTENCEREPIHIPGSIQPHGALLTADGHSGEVLQMSLNAATFLGQEPTVLRGQTLAALLPEQWPALQAALPPGCPDALQYRATLDWPAAGHLSLTVHRVGELLILEFEPTEAWDSTGPHALRNAMFALESAPNLRALAEVATQTVRELTGFDRVMLYKFAPDATGEVIAEARREGLHAFLGHRFPASDIPAQARALYTRHLLRLTADTRAAAVPLDPVLNPQTNAPTPLGGAVLRATSPMHMQYLRNMGVGSSLSVSVVVGGQLWGLIACHHQTPYVLPPDLRTTLEYLGRLLSLQVQVKEAADVAAFRQSLREHHARVALAAAHSLSPHDTLSDPALDLLGLMRAGGLILRFEGRWQTLGEVPPAPAVDALLAWLETQPGALVQTDALGQLWPAGADLAPSAAGLLAISVGEGWSECLVWLRPELRLEVAWGGATPDQAKDDLGPRHSFDTYLEEKRGYAEPWHPGEIEEAQDLRDTLTGALGERLSVIRDLNRALTQSNAEWRQYGFVISHHMQEPVRLISQFAELLTRQPRAQDGSPDSPQTERITGFLLRETSRLRSLTQDLHTYTALLSAPPPVRRPTPLGRVVDDVLQDLEPRIADTGASIEVAPELPVIAADAGLLRDLLLHLIGNALTFGGPEPRIAVRTERQGAGWSIAVSDQGAGIAPEYQERIFLLFQRLGSLDEALGNGLGLPLCRKIAELHGGTLTVESAPGEGSTFRCWLPDAGPLPGAADA
modifications: biliverdin (BV) chromophore; lysate incubated with a molar excess of biliverdin hydrochloride
notes: see m1; also called full-length DrBphP; source: E. coli BL21 (DE3), purified (NiNTA, size-exclusion chromatography), as part of the fusion m1
In the case of B1, the binding result is listed as “binds”.

B2: DrBphP-DrRR fusion protein (Deinococcus radiodurans phytochrome fused to its response regulator by a 12 amino acid tether) (other)
chain: MSRDPLPFFPPLYLGGPEITTENCEREPIHIPGSIQPHGALLTADGHSGEVLQMSLNAATFLGQEPTVLRGQTLAALLPEQWPALQAALPPGCPDALQYRATLDWPAAGHLSLTVHRVGELLILEFEPTEAWDSTGPHALRNAMFALESAPNLRALAEVATQTVRELTGFDRVMLYKFAPDATGEVIAEARREGLHAFLGHRFPASDIPAQARALYTRHLLRLTADTRAAAVPLDPVLNPQTNAPTPLGGAVLRATSPMHMQYLRNMGVGSSLSVSVVVGGQLWGLIACHHQTPYVLPPDLRTTLEYLGRLLSLQVQVKEAADVAAFRQSLREHHARVALAAAHSLSPHDTLSDPALDLLGLMRAGGLILRFEGRWQTLGEVPPAPAVDALLAWLETQPGALVQTDALGQLWPAGADLAPSAAGLLAISVGEGWSECLVWLRPELRLEVAWGGATPDQAKDDLGPRHSFDTYLEEKRGYAEPWHPGEIEEAQDLRDTLTGALGERLSVIRDLNRALTQSNAEWRQYGFVISHHMQEPVRLISQFAELLTRQPRAQDGSPDSPQTERITGFLLRETSRLRSLTQDLHTYTALLSAPPPVRRPTPLGRVVDDVLQDLEPRIADTGASIEVAPELPVIAADAGLLRDLLLHLIGNALTFGGPEPRIAVRTERQGAGWSIAVSDQGAGIAPEYQERIFLLFQRLGSLDEALGNGLGLPLCRKIAELHGGTLTVESAPGEGSTFRCWLPDAGPLPGAADAASSAGGSAGSAGMPERASVPLRLLLVEDNAADIFLMEMALEYSSVHTELLVARDGLEALELLEQAKTGGPFPDLILLDLNMPRVDGFELLQALRADPHLAHLPAIVLTTSNDPSDVKRAYALQANSYLTKPSTLEDFLQLIERLTAYWFGTAAIPQTYQPQ
modifications: biliverdin (BV) chromophore; lysate incubated with a molar excess of biliverdin hydrochloride
notes: 938-aa construct in pET21b(+), counting the N-terminal T7-tag and the C-terminal His6-tag; Models were built up to Leu591 (Pr) and for residues 22-521 (Pfr); also called full-length DrBphP-DrRR; source: E. coli BL21 (DE3), purified (NiNTA, size-exclusion chromatography)
The stoichiometry N is a count of units in the complex or per binding partner. Consider B2, for which the “stoichiometry N” value came out at 2.
